Consider two substances from paper PMC12593833.

The target of test [1] is synthetic D-streptavidin (mirror-image streptavidin) (S. avidinii). Description: SEC; analytical SEC of the folded proteins, with molecular weight standards. (Size exclusion chromatography separates by hydrodynamic size, large species first.)
Test [2] concerns the target synthetic L-streptavidin (S. avidinii). Described as above.

The term stoichiometry N denotes a count of units in the complex or per binding partner.

In the case of “synthetic D-streptavidin (mirror-image streptavidin)”, in test [1], the stoichiometry N stood at 4.
In test [2], “synthetic L-streptavidin (natural protein)” returned a stoichiometry N of 4.
